According to article PMC4159696:

Key:
[1] = target: NapD with an N-terminal hexa His-tag (NapD^NHis) (Escherichia coli) (UniProt P0A9I5); assay: SAXS; purified NapD^NHis/NapA complex, P12 BioSAXS beamline (PETRA III), 7 °C
[2] = target: NapD with an N-terminal hexa His-tag (NapD^NHis) (Escherichia coli) (UniProt P0A9I5); assay: AUC; sedimentation equilibrium, 4 °C, about 100 kDa complex (fraction 80 of SEC), 0.5 to 1.0 mg/mL, interference and absorbance optics at 260, 280 and 300 nm

Chain of UniProt P0A9I5 (P0A9I5 whole entry): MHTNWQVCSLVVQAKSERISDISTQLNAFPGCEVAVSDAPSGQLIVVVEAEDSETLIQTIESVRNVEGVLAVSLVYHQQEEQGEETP

full-length NapA precursor protein (from UniProt P33937 37-828) (natural protein)
stoichiometry N [1]: 1
stoichiometry N [2]: 1
